Results as given in patent publication US20250242021A1 (BLUESPHERE BIO, published 2025).

Molecular target: HA-1 “H” peptide (…) presented on LCL222 cells (H/H)
Experiment: cell-based or functional assay

B1: anti-HA-1 “H” epitope TCR (TCR, V domains shown)
V domain 1: AQSVAQPEDQVNVAEGNPLTVKCTYSVSGNPYLFWYVQYPNRGLQFLLKYITGDNLVKGSYGFEAEFNKSQTSFHLKKPSALVSDSALYFCAVRAPTSGTYKYIFGTGTRLKVLA
V domain 2: GVSQDPRHKITKRGQNVTFRCDPISEHNRLYWYRQTLGQGPEFLTYFQNEAQLEKSRLLSDRFSAERPKGSFSTLEIQRTEQGDSAMYLCASSLVSGNEQFFGPGTRLTVLE
E:T ratio at which target cells were almost undetectable, cytotoxicity killing assay: 1.38 E:T ratio | EC50, cytotoxicity killing assay (E:T ratio): 0.49 E:T ratio
